{
  "source": "paper PMC6308316",
  "about": "“Characterization of a Putrescine Transaminase From Pseudomonas putida and its Application to the Synthesis of Benzylamine Derivatives” (Frontiers in Bioengineering and Biotechnology, 2018)",
  "target": "the molecule itself",
  "experiment": "crystal structure; apo Pp-SpuC; crystals in 0.2 M MgCl2, 0.1 M Bis-Tris pH 6.5, 25% PEG3350, 20°C; two monomers in the asymmetric unit",
  "data": [
    {"protein": "putrescine transaminase from Pseudomonas putida (Pp-SpuC) (enzyme, putrescine transaminase SpuC of Pseudomonas putida (strain NBRC 14161 bought from NCIMB), cloned in pET-28b as in Galman et al., 2017; in the crystal residues 1-33, 154-179 and 313-324 are disordered; No cleavage of the tag is told; Crystallised in the apo form (no PLP seen); also called putrescine transaminase spuC; source: E. coli BL21 (DE3), pET28b, purified (Ni-NTA, ion exchange on …)) MSTNNPQTREWQTLSGEHHLAPFSDYKQLKEKGPRIITKAQGVHLWDSEGHKILDGMAGLWCVAVGYGREELVQAAEKQMRELPYYNLFFQTAHPPALELAKAITDVAPEGMTHVFFTGSGSEGNDTVLRMVRHYWALKGKPHKQTIIGRINGYHGSTFAGACLGGMSGMHEQGGLPIPGIVHIPQPYWFGEGGDMTPDAFGIWAAEQLEKKILEVGEDNVAAFIAEPIQGAGGVIIPPETYWPKVKEILAKYDILFVADEVICGFGRTGEWFGSDYYDLKPDLMTIAKGLTSGYIPMGGVIVRDKVAKVISEGGDFNHGFTYSGHPVAAAVGLENLRILRDEQIVEKARTEAAPYLQKRLRELQDHPLVGEVRGLGMLGAIELVKDKATRSRYEGKGVGMICRTFCFENGLIMRAVGDTMIIAPPLVISHAEIDELVEKARKCLDLTLEAIR", "values": [
      {"measurement": "stoichiometry N", "value": 2}
    ]}
  ]
}
